Assay results from publication PMC6340890, “Transcriptional mechanism of IRF8 and PU.1 governs microglial activation in neurodegenerative condition”.

Legend:
IRF8;PU.1 [1] = target: T1, IRF8;PU.1 (Mus musculus;Mus musculus, UniProt P23611;P17433 1-424;1-272, |); assay: EMSA; synergistic; LightShift Chemiluminescent EMSA Kit; buffer, salt and pH not stated; supershift incubation 4 °C, 20 min; details: protein: recombinant;recombinant; tags: Flag;Flag; copies: 1;1; label: 5'-biotin (both strands)
IRF8;PU.1 [2] = target: T1, IRF8;PU.1; assay: EMSA; synergistic; supershifted by anti-IRF8 and by anti-PU.1, not by control IgG; LightShift Chemiluminescent EMSA Kit; buffer, salt and pH not stated; supershift incubation 4 °C, 20 min; details: protein: recombinant;recombinant; tags: Flag;Flag; copies: 1;1; label: 5'-biotin (both strands)

T1 sequence (P23611 whole entry, chain 1 of 2, other chains not shown): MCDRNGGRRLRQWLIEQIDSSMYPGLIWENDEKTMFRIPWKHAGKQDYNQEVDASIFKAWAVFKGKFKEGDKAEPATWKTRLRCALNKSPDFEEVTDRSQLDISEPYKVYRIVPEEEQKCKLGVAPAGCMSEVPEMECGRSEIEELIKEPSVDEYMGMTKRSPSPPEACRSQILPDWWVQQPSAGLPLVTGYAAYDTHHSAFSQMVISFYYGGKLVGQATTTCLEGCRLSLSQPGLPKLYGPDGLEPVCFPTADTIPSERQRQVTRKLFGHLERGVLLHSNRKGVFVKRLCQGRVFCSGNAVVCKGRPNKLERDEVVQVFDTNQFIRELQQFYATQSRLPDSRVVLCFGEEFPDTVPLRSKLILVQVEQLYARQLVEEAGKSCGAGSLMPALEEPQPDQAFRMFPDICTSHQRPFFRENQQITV

Row | Binder | binding result (IRF8;PU.1 [1]) | binding result (IRF8;PU.1 [2])
1 | Ikbkb probe (dsDNA) DNA 1: CCGTCCTCAGTTTCACTTCCTGTCAGTGCT DNA 2: AGCACTGACAGGAAGTGAAACTGAGGACGG | binds | –
2 | Nfkb1 probe (dsDNA) DNA 1: TCCCCCCTGGTTTCCCTTCCTGTAAATACA DNA 2: TGTATTTACAGGAAGGGAAACCAGGGGGGA | binds | –
3 | Tak1 probe (dsDNA) DNA 1: CCTTCCATGGTTTCAGTTCCTCTTAAGGGA DNA 2: TCCCTTAAGAGGAACTGAAACCATGGAAGG | – | binds
4 | Ripk2 probe (dsDNA) DNA 1: ACAGTCTTACTTTCACTTCCTGAATTCATT DNA 2: AATGAATTCAGGAAGTGAAAGTAAGACTGT | – | binds
